Measurements taken from patent US20150359864A1, “PHARMACEUTICAL COMPOSITION CONTAINING PEPTIDES” (ONCOTHERAPY SCIENCE, INC., priority 2012, published 2015).

Assays:
[1] = Preparation of single peptide injection preparations using sodium carbonate solution (Example 1); type: physicochemical; settings: for Whether injection preparation could be prepared (in words): 5 mg to 20 mg peptide in 1 ml injection solvent containing sodium carbonate; for Peptide concentration at which injection preparation could be prepared, Example 1 (Na2CO3): 41 mg sodium carbonate decahydrate in 1 ml injection solvent; for pH of injection preparation, Example 1 (Na2CO3): injection solvent containing sodium carbonate
Protocol: (§1) 41 mg of sodium carbonate decahydrate (Na2CO3.10H2O) was dissolved in 1 ml of an injection solvent to obtain an injection solvent containing sodium carbonate. In order to prepare formulations of the each peptide that was not dissolved in an injection solvent in Comparative Example 1, Peptides 1, 2, 4, 7, and 10 were separately added to 1 ml of injection solvents containing sodium carbonate.
In the case of Peptide 1, it was confirmed that the injection preparation could be obtained with the addition of 9 mg of peptide at the maximum. All the obtained injection preparations had pH levels within adequate range for injection (Table 2).

[2] = Preparation of single peptide injection preparations using arginine solution (Example 2); type: physicochemical; settings: for Whether injection preparation could be prepared (in words): 5 mg to 20 mg peptide in 1 ml injection solvent containing arginine; for Peptide concentration at which injection preparation could be prepared, Example 2 (Arg): 40 mg L-arginine in 1 ml injection solvent; for pH of injection preparation, Example 2 (Arg): injection solvent containing arginine
Protocol: as §1, with “40” for “41”, “L-arginine” for “sodium carbonate decahydrate (Na2CO3.10H2O)”, “arginine.” for “sodium carbonate.”, “of” for “of the”
In the case of Peptide 1, it was confirmed that the injection preparation could be obtained with the addition of 6 mg of peptide at the maximum. All the obtained injection preparations had pH levels within adequate range for injection (Table 2).

[3] = Preparation of injection preparations using sodium carbonate/arginine solution (Example 3); type: physicochemical; settings: for Peptide concentration at which injection preparation could be prepared, Example 3 (Na2CO3/Arg): 41 mg sodium carbonate decahydrate and 40 mg L-arginine in 1 ml injection solvent; for pH of injection preparation, Example 3 (Na2CO3/Arg): injection solvent containing sodium carbonate and arginine
Protocol: 41 mg of sodium carbonate decahydrate and 40 mg of L-arginine were dissolved in 1 ml of an injection solvent to obtain an injection solvent containing sodium carbonate and arginine.
In the case of Peptide 3, it was confirmed that the injection preparation could be obtained with the addition of 15 mg of peptide at the maximum. All the obtained injection preparations had pH levels within adequate range for injection (Table 2).

[4] = Combination peptide injection preparation using arginine solution (Example 4); type: physicochemical; set-up: key to Dissolution on successive addition, Example 4-1 (Arg) (1 mg each) / Dissolution on successive addition, Example 4-2 (Arg) (2 mg each): ◯: Dissolved; X: White Turbid; settings: for Dissolution on successive addition, Example 4-1 (Arg) (1 mg each): 1 mg each peptide added one after another to 1 ml arginine solvent; for Dissolution on successive addition, Example 4-2 (Arg) (2 mg each): 2 mg each peptide added one after another to 1 ml arginine solvent
Protocol: In order to prepare an injection preparation containing combination of the peptides shown in Table 1, the 10 types of peptides shown in Table 1 were added in an amount of 1 mg each to 1 ml of the injection solvent containing arginine as used in Example 2. The entire amount of one peptide was dissolved upon addition thereof to obtain a colorless and clear solution, and another peptide was then added thereto.
Subsequently, preparation of another injection preparation containing combination of the peptides was attempted in the same manner as described above, except that the amount of each peptide added was changed to 2 mg. […] Thus, no other peptides were added thereafter.

[5] = Combination peptide injection preparation using sodium carbonate solution (Example 5); type: physicochemical; set-up: key to Dissolution on successive addition, Example 5 (Na2CO3) (2 mg each) / Dissolution of further 2 mg of Peptide 2, Example 5 (Na2CO3): ◯: Dissolved; X: White Turbid; settings: for Dissolution on successive addition, Example 5 (Na2CO3) (2 mg each): 2 mg each peptide added one after another to 1 ml sodium carbonate solvent
Protocol: (§2) In order to prepare an injection preparation containing combination of the peptides shown in Table 1, the 10 types of peptides shown in Table 1 were added in an amount of 2 mg each to 1 ml of the injection solvent containing sodium carbonate as used in Example 1. The addition of each peptide was conducted in the same manner as in Example 4.

[6] = Combination peptide injection preparation using sodium carbonate/arginine solution (Example 6); type: physicochemical; set-up: key to Dissolution on successive addition, Example 6 (Na2CO3/Arg) (2 mg each) / Dissolution of further 2 mg of Peptide 2, Example 6 (Na2CO3/Arg): ◯: Dissolved; X: White Turbid; settings: for Dissolution on successive addition, Example 6 (Na2CO3/Arg) (2 mg each): 2 mg each peptide added one after another to 1 ml sodium carbonate/arginine solvent
Protocol: as §2, with “carbonate and arginine” for “carbonate”, “3.” for “1.”

[7] = Stability of lyophilized formulation, peptide content in the vial by HPLC (Example 7); type: physicochemical; settings: 25 degrees C., humidity 60%, relative to comparative solution peak area = 100%
Protocol: 107.7 g of L-arginine and 110.4 g of sodium carbonate hydrate were dissolved in 5,500 ml of an injection solvent. Peptide 1, Peptide 2, Peptide 3, and Peptide 4 were dissolved therein in amounts of 6.2 g, 7.5 g, 8.7 g, and 8.0 g, respectively. Thereafter, the total amount of the solution was adjusted to 7,000 ml with the addition of an injection solvent, and a combination peptide solution was obtained. […] Following lyophilization, the vial was fully stoppered and the aluminum cap seaming was conducted. Thus, a lyophilized formulation was produced.
Further, the results shown above were subjected to regression analysis, so as to predict stability 24 months later.

[8] = Preparation of single peptide injection preparations using injection solvent (Comparative Example 1); settings: for Whether injection preparation could be prepared (in words): 2 mg to 20 mg peptide in 1 ml injection solvent; for Peptide concentration at which injection preparation could be prepared, Comparative Example 1 (injection solvent): injection solvent (water), room temperature, class symbol
Protocol: Pharmaceutical water defined by the Japanese Pharmacopoeia was used as an injection solvent.
In order to prepare formulations containing one of the peptides shown in Table 1, each of the peptides shown in Table 1 were added to 1 ml of an injection solvent. The resultants were agitated at room temperature so as to dissolve the entire amounts of the peptides added, and thereby colorless and clear solutions of each peptide were obtained. Thereafter, the peptide solutions were sterilized via filtration (with the use of a 0.22-μm filter) to obtain injection preparations.
The amounts of peptides added varied within the range of 2 mg to 20 mg, and injection preparations were prepared at each concentration. […] For these peptides, peptide concentrations that enable preparation of injection preparations were investigated.

[9] = further 2 mg added after all 10 peptides (2 mg each) had dissolved

Sequence	Whether injection preparation could be prepared (in words) [1]	Peptide concentration at which injection preparation could be prepared, Example 1 (Na2CO3) ([1]; class symbol)	pH of injection preparation, Example 1 (Na2CO3) [1]	Whether injection preparation could be prepared (in words) [2]	Peptide concentration at which injection preparation could be prepared, Example 2 (Arg) ([2]; class symbol)	pH of injection preparation, Example 2 (Arg) [2]	Peptide concentration at which injection preparation could be prepared, Example 3 (Na2CO3/Arg) ([3]; class symbol)	pH of injection preparation, Example 3 (Na2CO3/Arg) [3]	Dissolution on successive addition, Example 4-1 (Arg) (1 mg each) [4]	Dissolution on successive addition, Example 4-2 (Arg) (2 mg each) [4]	Dissolution on successive addition, Example 5 (Na2CO3) (2 mg each) [5]	Dissolution on successive addition, Example 6 (Na2CO3/Arg) (2 mg each) [6]	Peptide content in the vial, 0 months [7] [%]	Peptide content in the vial, 1 month [7] [%]	Peptide content in the vial, 3 months [7] [%]	Peptide content in the vial, 6 months [7] [%]	Whether injection preparation could be prepared (in words) [8]	Peptide concentration at which injection preparation could be prepared, Comparative Example 1 (injection solvent) [8]	further results
EYYELFVNI (T cell epitope) [Peptide 2]	possible to prepare the injection preparations regardless of the amounts of peptides added	⊚ (20 mg/ml or more)	8.90	possible to prepare the injection preparations regardless of the amounts of peptides added	⊚ (20 mg/ml or more)	9.03	⊚ (20 mg/ml or more)	9.67	◯	◯	◯	◯	101.8	99.5	101.3	101.4	not possible to prepare the injection preparations regardless of the amounts of peptides added	X (0.08 mg/ml or less)	Dissolution of further 2 mg of Peptide 2, Example 5 (Na2CO3) [5, 9]: X; Dissolution of further 2 mg (in words), Example 5 ([5]; further 2 mg after all 10 peptides (2 mg each), sodium carbonate solvent): white turbidity; Dissolution of further 2 mg of Peptide 2, Example 6 (Na2CO3/Arg) [6, 9]: ◯; Dissolution of further 2 mg (in words), Example 6 ([6]; further 2 mg after all 10 peptides (2 mg each), sodium carbonate/arginine solvent): colorless and clear solution was obtained
IYTWIEDHF (T cell epitope) [Peptide 4]	possible to prepare the injection preparations regardless of the amounts of peptides added	⊚ (20 mg/ml or more)	8.88	possible to prepare the injection preparations regardless of the amounts of peptides added	⊚ (20 mg/ml or more)	8.95	⊚ (20 mg/ml or more)	9.69	◯		◯	◯	101.2	99.6	99.4	99.5	not possible to prepare the injection preparations regardless of the amounts of peptides added	X (0.08 mg/ml or less)	
SYGVLLWEI (T cell epitope) [Peptide 1]			(9.85)			(10.17)		(10.41)	◯	◯	◯	◯	101.0	98.7	98.9	98.6	not possible to prepare the injection preparations regardless of the amounts of peptides added	X (0.08 mg/ml or less)	Peptide concentration at which injection preparation could be prepared, Example 1 (Na2CO3) ([1]; numeric): 9 mg/mL; Maximum amount of peptide added that gave an injection preparation ([1]; in 1 ml injection solvent containing sodium carbonate): 9 mg; Peptide concentration at which injection preparation could be prepared, Example 2 (Arg) ([2]; numeric): 6 mg/mL; Maximum amount of peptide added that gave an injection preparation ([2]; in 1 ml injection solvent containing arginine): 6 mg; Peptide concentration at which injection preparation could be prepared, Example 3 (Na2CO3/Arg) ([3]; numeric): 10 mg/mL
